Source: the RNAGym collection of RNA variant scans (doi:10.7554/elife.80360)

B1: HDV Ribozyme (parent)
chain: GGCCGGCAUGGUCCCAGCCUCCUCGCUGGCGCCGGCUGGGCAACAUUCCGAGGGGACCGUCCCCUCGGUAAUGGCGAAUGGGACCCA

Variants of: B1
Experiment: self-cleavage, relative activity (ratio to wild type); higher = more cleavage; co-transcriptional

| Variant | self-cleavage |
| --- | --- |
| GGCCGGCAUGGUCCCAGCCUCCUCGCUGGCGCCGCCUGGGCAACAUUCCGAGGGGACCGUCCCCUCGUUAAUGGCGAAUGGGACCCA [G35C G68U] | 0.305 |
| GGCCGGCAUGGUCCCAGCCUCCUCGCUGCCGCCGGCUGGGCAACUUUCCGAGGGGACCGUCCCCUCGGUAAUGGCGAAUGGGACCCA [G29C A45U] | 0.0519 |
| GGCCGGCAUGGUCCCAGCCUCCUCGCUGGCGCCGGCUGGGUAACAUUCCGAGGGGACCGUCCCCUCGGUAGUGGCGAAUGGGACCCA [C41U A71G] | 1.06 |
| GGCCGGCAUGGUCCCAGCCUCAUCGCUGGCGCCGGCUGGGCAACAUUCCGAGGGGAACGUCCCCUCGGUAAUGGCGAAUGGGACCCA [C22A C57A] | 0.208 |
| GGCCGGCAUGGUCCCAGCCUCCUCGCUGGCCCCGGCUGGGCAACAUUCCGAGGGGACCGUCACCUCGGUAAUGGCGAAUGGGACCCA [G31C C62A] | 0.181 |
| GGCCGGCAUGGUCCCAGCCUCCUCGCUGGCGCCGACUGGGUAACAUUCCGAGGGGACCGUCCCCUCGGUAAUGGCGAAUGGGACCCA [G35A C41U] | 0.524 |
| GGCUGGCAUGGUCCCAGCCUCCUCGCUGGCGCCGGCUGGGCAACAUUCCGAGGGGACCGUCCCCUCGGUAAUGGCGAAUGAGACCCA [C4U G81A] | 0.136 |
| GGCCGGCAUGGUCCCAGCCUACUCGCUGGCGCCGGCGGGGCAACAUUCCGAGGGGACCGUCCCCUCGGUAAUGGCGAAUGGGACCCA [C21A U37G] | 0.208 |
| GGCCGGCAUGGUCCCAGCCUCCUCGCUGGCACCGGCUGGGCAACAUUCCGAUGGGACCGUCCCCUCGGUAAUGGCGAAUGGGACCCA [G31A G52U] | 0.531 |
| GGCCGGCAUGGUCCCCGCCUCCUCGCUGGCGCCGGCUGGGCUACAUUCCGAGGGGACCGUCCCCUCGGUAAUGGCGAAUGGGACCCA [A16C A42U] | 0.208 |
| GGCCGGCAUGGUCCCAGCCUCCUCGCUGGCGCCGCCUGGGCAACAUUCCGAGGGGGCCGUCCCCUCGGUAAUGGCGAAUGGGACCCA [G35C A56G] | 0.128 |
| GGCCGGCAGGGUCCCAGCCUCCUCGCUGGCGCCGGCUGGGCAACAUUCCGAGGAGACCGUCCCCUCGGUAAUGGCGAAUGGGACCCA [U9G G54A] | 0.95 |
| GGCCGGCAUGGUCCCAGCUUCCUCGCUGGCGCCGGCUGGGCAACAUUCCGAGGGGAGCGUCCCCUCGGUAAUGGCGAAUGGGACCCA [C19U C57G] | 0.089 |
| GGCCGGCAUGGUCCCAGCCUCCUCGCUGGCGCCGGCUGGGGAACAUUCCGAGGGGACCGUCCCCUCAGUAAUGGCGAAUGGGACCCA [C41G G67A] | 0.456 |
| GGCCGGCAUGGUCCCAGCCUCCUCGCUGGCGCCGGCUGGGCAACAUUCCGAGGGGACCGUCCCCUCGGUAAUGGCGGAUAGGACCCA [A77G G80A] | 0.242 |
| GGCCGGCAUGGUCCCCGCCUCCUCGCUGGCGCCGGCUGGGCAACAUUCCGAGGGGACCGUCCCAUCGGUAAUGGCGAAUGGGACCCA [A16C C64A] | 0.895 |
| GGCCGGCAUGGUCCCAGCUUCCUCGCUGACGCCGGCUGGGCAACAUUCCGAGGGGACCGUCCCCUCGGUAAUGGCGAAUGGGACCCA [C19U G29A] | 0.102 |
| GGCCGGCAUGGUCCCAGCCUCCUCGCUGGCGCCGGCUGGGUAACAUUCCGAGGGGACCGUCCCCCCGGUAAUGGCGAAUGGGACCCA [C41U U65C] | 0.954 |
| GGCCGGCAUGGUCCCAGCCUCCUCGCUGGCGCCGGCUGGGCAACCUUCCGAGGGGACCGUCCCCUCGGUCAUGGCGAAUGGGACCCA [A45C A70C] | 0.615 |
| GGCUGGCAUGGUCCCAGCCUCAUCGCUGGCGCCGGCUGGGCAACAUUCCGAGGGGACCGUCCCCUCGGUAAUGGCGAAUGGGACCCA [C4U C22A] | 0.188 |
| GGCCGGCAUGGUCCCAGCCUCCCCGCUGGCGCCGGCUGGGCAACAUUCCGAGGCGACCGUCCCCUCGGUAAUGGCGAAUGGGACCCA [U23C G54C] | 0.673 |
| GGCCGGCAUGGUCCCAGCCUCCUCGCUGGCGCCGGCUGGGCAACAUUCCGAGGGGACCGUCCCCUCGGUAAUGGCGAAUCGGUCCCA [G80C A83U] | 0.164 |

| Variant | self-cleavage |
| --- | --- |
| AGCCGGCAUGGUCCCAGCCUCCUCGCUGGCGCCGGCUGGGCAACAUUCCGAGGGGACCGUCCCCGCGGUAAUGGCGAAUGGGACCCA [G1A U65G] | 0 |
| GGCCGGCAUGGUCUCAGCCUCCUCGCUGGCGCCGGCUGGGCAACAUUCCGAGGGGACCGUCCCCUCGGUAAUGGCGUAUGGGACCCA [C14U A77U] | 0.573 |
| AGCCGGCAUGGUCCCAGCCUCCUCGCUGGCGCCGGCUGGGCAACAUUCCGAGGGGACCGUCCCCUCGGUAAUGGCGAAUGUGACCCA [G1A G81U] | 0.0426 |
| GGCCGGCAUGGUCCCAGCCUCCUCGCUGGCGCCGGCUGGGCAACUUUCCGAGGGGACCGUCCCCUUGGUAAUGGCGAAUGGGACCCA [A45U C66U] | 1.02 |
| GGACGGCAUGGUCCCAGCCUCCGCGCUGGCGCCGGCUGGGCAACAUUCCGAGGGGACCGUCCCCUCGGUAAUGGCGAAUGGGACCCA [C3A U23G] | 0.352 |
| GGCCGGCAGGGUCCCAGCCUCCUCGCUGGCGCCGGCUGGGCAACAUUCCGAGGGGACCGUCCCCUCGGUAAUGGCGAAUGGAACCCA [U9G G82A] | 0.739 |
| GGCCGGCAUGGUCCCAGCCUCCUCGCUGGCGCCGGCUGGGCAAGAUUCCGGGGGGACCGUCCCCUCGGUAAUGGCGAAUGGGACCCA [C44G A51G] | 0.653 |
| GGCCGGCAUGGUCCCAGCCUCCUCGCUGGCGCCGGCUGGGCAACAUUCCGAGGGGACCGUCCCCUCGGUAAUGGCGCAUAGGACCCA [A77C G80A] | 0.0378 |
| GGCCGGCAUGGUCCCAGCCUCCGCGCUGGCGUCGGCUGGGCAACAUUCCGAGGGGACCGUCCCCUCGGUAAUGGCGAAUGGGACCCA [U23G C32U] | 0.6 |
| GACCGGCAUGGUCCCAGCCUCCUCGCUGGCGCCGGCUGGGCAACAUUCCGAGGGGACCGUCCCCGCGGUAAUGGCGAAUGGGACCCA [G2A U65G] | 0.223 |
| GGCCGGCAUGGUCCCAGCCUCCUCGCUUGCGCCGGCUGGGCAACAUUCCGAUGGGACCGUCCCCUCGGUAAUGGCGAAUGGGACCCA [G28U G52U] | 0.211 |
| GGCCGGCAUGGUCCCAGCCUCCUCGCUGGCGCCGGCUGGGCAACAUUCCGAGGGGACCGUCCCCUCGGUAGUGGCGAACGGGACCCA [A71G U79C] | 0.339 |
| GGCCGGCAUGUUCGCAGCCUCCUCGCUGGCGCCGGCUGGGCAACAUUCCGAGGGGACCGUCCCCUCGGUAAUGGCGAAUGGGACCCA [G11U C14G] | 0.0692 |
| GGCCGGCAUGGUCCCAGCCUCCUCGCUGGCGCCGGCUGGGCAACAUUCCGAGGGGACCGUCCCCCCGGUAAUGGCGAAUGGGACCUA [U65C C86U] | 0.516 |
| GGCCGGCAUGGUCCCAGCCUCCUCGCUGGCGCCGGCUUGGCAACAUUCCGAGGGGACCGUCCCCUCGGUAAUGGCGAAUGGGACUCA [G38U C85U] | 0.269 |
| GGCCGGCAUGGUCCCAGUCUCCUCGCUGGCGCCGGCUGGGCAACAUUCCGAGGGGACCGUCCCCUCGGUAAAGGCGAAUGGGACCCA [C18U U72A] | 0.175 |
| GGCCGGCAUGGUCCCAGCCUCCUCGCUGGCGCCGGCUGGGCAACAUUCCGAUGGGACCGUCCCCUCGGUCAUGGCGAAUGGGACCCA [G52U A70C] | 0.577 |
| GGCCGGCAUGGUCCCAGCCUCCUCGCUGGCGCACGCUGGGCAACAUUCCGAGGGGACCGUCCCCUCGGUAAUGGCGAAUGGGACCCA [C33A G34C] | 0.108 |
| GGCCGGCAUGGUCCCAGCCUCCUCGCUGGCGCCGGGUGGGCAACAUUCCGAGGGGACCGUCCCCUCGGAAAUGGCGAAUGGGACCCA [C36G U69A] | 0.229 |
| GGCCGGCAUGGUACCAGCUUCCUCGCUGGCGCCGGCUGGGCAACAUUCCGAGGGGACCGUCCCCUCGGUAAUGGCGAAUGGGACCCA [C13A C19U] | 0.119 |
| GGCCGGCAUGGUCCCAGCCUCCUCGCUGGCGCGGGCUGGGCAACAUUCCGAGGGGACCGUCCCCUCGGUAAUGGCGGAUGGGACCCA [C33G A77G] | 0.138 |
| GGCCGGCAUGGUCCCAGCCUCCUCGCUGGCGCCGGCUGGGCAACAUUCCGAGAGGACCGUCCCCUCGGUAAUGGCGAAUCGGACCCA [G53A G80C] | 0.351 |

| Variant | self-cleavage |
| --- | --- |
| GGCCGGCAUGGUCCCAGCCUCCUCGCUGGCGUCGGCUGGGCAACAUUCCGAGGGGACCGUCCCCUCGGCAAUGGCGAAUGGGACCCA [C32U U69C] | 1.19 |
| GGCCGGCAUGGUCCCAACCUCCUCGCUGGCGCCGGCUGGGCAACAUUCCGAGGGGACCGUCCCCUCGGUCAUGGCGAAUGGGACCCA [G17A A70C] | 0.449 |
| GGCCGGCAUGGUCCCAGCCUCCUCGCUGCCGCCGCCUGGGCAACAUUCCGAGGGGACCGUCCCCUCGGUAAUGGCGAAUGGGACCCA [G29C G35C] | 0.0405 |
| GGCCGGCAUGGUCCCAGCCUCCUCGCUGGCGCCGGCUGGGCAACAUUCCGAGUGGACCGUCCCCUCGGUAAUGGCGGAUGGGACCCA [G53U A77G] | 0.8 |
| GGCCGGCAUGGUCCCAGCCUCCUCGCUGGCGCCGGCUGGGCAACAUUCCGAGGGGACCGUCCCCUCGCUAAGGGCGAAUGGGACCCA [G68C U72G] | 0.356 |
| GGCCGGCUUGGUCCCAGCCUCCUCGCUGGCGCCGGCUGGGCAACAUUCCGAGGGGACCGUCCCCUCGGUAAUGGCGAAUGGGACGCA [A8U C85G] | 0.883 |
| GCCCGGCAUGGUCCCAGCCUCCUCGCUGGCGCCGGCUGGACAACAUUCCGAGGGGACCGUCCCCUCGGUAAUGGCGAAUGGGACCCA [G2C G40A] | 0.0773 |
| GGCCGGCAUGGUCCCAGCCUCCACGCUGGCGCCGGCUGGGCAACAUUCCGAGGGGACCGUCCCCUCGGUAAUGGCGAAUGUGACCCA [U23A G81U] | 0.134 |
| CGCCGGCAUGGUCCCAGCCUCCUCGCCGGCGCCGGCUGGGCAACAUUCCGAGGGGACCGUCCCCUCGGUAAUGGCGAAUGGGACCCA [G1C U27C] | 0 |
| GGCCGGCAUGGUCCCAGCCUCCUCGUUGGCGCCGGCUGGGGAACAUUCCGAGGGGACCGUCCCCUCGGUAAUGGCGAAUGGGACCCA [C26U C41G] | 1.02 |
| GGCCGGCAUGGUCCCAGCCUCCUCGCUGGCGCCGGCUGGGCAACUUUCCGAGGGGACCGUCCCCUCGAUAAUGGCGAAUGGGACCCA [A45U G68A] | 0.712 |
| GGCCGGCAUGGUCCCAGCCUCCUCGCUGGCGCCGGCUGGGCAACAUUCCGAGGGGACCGUCCCCUCGGUAAUGGCGAUCGGGACCCA [A78U U79C] | 0.375 |
| GGACGGCAUGGUCCCUGCCUCCUCGCUGGCGCCGGCUGGGCAACAUUCCGAGGGGACCGUCCCCUCGGUAAUGGCGAAUGGGACCCA [C3A A16U] | 0.318 |
| GGCCGGCAUGGUCCCAUCCUCCUCGCUGGCGCCGGCUGGGCAACAUUCCGAGGGGACCGUCCCCUCGGUAAUGGCGAGUGGGACCCA [G17U A78G] | 0.201 |
| GGCCGGCAUGGUCCCAGCCGCCUCGCUGCCGCCGGCUGGGCAACAUUCCGAGGGGACCGUCCCCUCGGUAAUGGCGAAUGGGACCCA [U20G G29C] | 0 |
| GGCCGGCAUGGUCCCAGCCUCCUCGCUGGCGCCGGCUGGGCAACAUUCCGAGGGGACCGUCCCCUCGGUAUUUGCGAAUGGGACCCA [A71U G73U] | 0.237 |
| GGCCGGCAUGGUCCCAGCCUCCUCGCUGCCGCCGGCUGGGCAAGAUUCCGAGGGGACCGUCCCCUCGGUAAUGGCGAAUGGGACCCA [G29C C44G] | 0 |
| GGCCGGCAUGGUCCCAGCCUACUCGCUGGCGCCGGCUGGGCAACAUUCCGAGGGCACCGUCCCCUCGGUAAUGGCGAAUGGGACCCA [C21A G55C] | 0.13 |
| GGCCGGCAUGGUCCCAGCCUCCUCGCUGGCGCCGGCUGGGCAACAUUCCGAUGGGACCGUCCCCUCGGUAAUGGCGAAUGGGGCCCA [G52U A83G] | 0.81 |
| GGCCGGCAUGGUCCCAGCCUCCUCGCUCGCGCCGGCUGGGCAACAUUCCGAGGGGACCGUCCCGUCGGUAAUGGCGAAUGGGACCCA [G28C C64G] | 0.0791 |
